Source: patent US11959134, “Methods of determining nucleic acid structural information” (Bionano Genomics, Inc.)

Tests used:
[1] = target: T1, M.BseCI DNA adenine methyltransferase (UniProt P43423 P43423:1-579); test: labeling with Atto532AdoY, 22x enzyme excess over sites, 55 C, 5 h; labeled DNA assembled into single contig aligned to reference
Method: A solution (40 ul) of E. coli DNA (500 ng), M.BseCI (22× excess over DNA sites) and Atto532AdoY (40 uM) in 10 mM Tris-HCl, 10 mM EDTA, and 5 mM beta-mercaptoethanol, pH 7.4 were mixed with 4 uL NaOH (0.1M). The solution was incubated for 5 h at 55° C. Proteinase K (1 ul) was added and the solution incubated for 1 h at 37° C. The DNA was dialyzed against 1×TE buffer and stained with YOYO-1 to a final concentration of 3.5-5 ng/ul.
A freshly prepared solution (4 ul) of 4-nitrobenzoic alcohol (1.4 mM), Trolox (1.4 mM), protocatechuate-3,4-dioxygenase (0.36 uM), protocatechuic acid (50 ug) was mixed with stained E. coli DNA of Example 7, 1× flow buffer and Tris (25 mM) and NaCl (10 mM) were added. The sample was loaded onto an IrysChip™ and imaged using the Irys™ instrument.
The E. coli DNA of Examples 7 and 8 was assembled and compared to a reference genome. The labeled E. coli DNA assembled into a single contig (FIG. 5, right contig) and aligned to a reference contig sequence (FIG. 5, left contig).

[2] = target: T1, M.BseCI DNA adenine methyltransferase; test: sequence-specific covalent labeling with Atto532AdoY cofactor seen in nanochannels; 285 nM enzyme, 10 mM Tris-HCl, 10 mM EDTA, 5 mM beta-mercaptoethanol, pH 7.4, 55 C, 5 h
Method: A solution (40 ul) of 2 uL T7 DNA (500 ng/ul), M.BseCI (285 nM) and Atto532AdoY (40 uM) in 10 mM Tris-HCl, 10 mM EDTA, and 5 mM β-mercaptoethanol, pH 7.4 were mixed with 4 uL NaOH (0.1M). The solution was incubated for 5 h at 55° C. Proteinase K (1 ul) was added and the solution incubated for 1 h at 37° C. DNA was ethanol precipitated and redissolved in 1×TE buffer (10 ul).
For DNA staining of the T7 DNA labeled in Example 5, above, a solution (50 ul) of DNA (10 ng/ul), YOYO-1 (500 nM) in 1× flow buffer was incubated for 4 h at 4° C. Subsequently, a freshly prepared solution (4 ul) of 4-nitrobenzoic alcohol (1.4 mM), Trolox (1.4 mM), protocatechuate-3,4-dioxygenase (0.36 uM), protocatechuic acid (50 ug) was mixed with 10 uL of the stained DNA (above) and was loaded onto an IrysChip™ and imaged using the Irys™ instrument. FIG. 4 represents an example of imaged, labeled T7 DNA molecules.

T1 sequence (P43423 whole entry, one chain of several): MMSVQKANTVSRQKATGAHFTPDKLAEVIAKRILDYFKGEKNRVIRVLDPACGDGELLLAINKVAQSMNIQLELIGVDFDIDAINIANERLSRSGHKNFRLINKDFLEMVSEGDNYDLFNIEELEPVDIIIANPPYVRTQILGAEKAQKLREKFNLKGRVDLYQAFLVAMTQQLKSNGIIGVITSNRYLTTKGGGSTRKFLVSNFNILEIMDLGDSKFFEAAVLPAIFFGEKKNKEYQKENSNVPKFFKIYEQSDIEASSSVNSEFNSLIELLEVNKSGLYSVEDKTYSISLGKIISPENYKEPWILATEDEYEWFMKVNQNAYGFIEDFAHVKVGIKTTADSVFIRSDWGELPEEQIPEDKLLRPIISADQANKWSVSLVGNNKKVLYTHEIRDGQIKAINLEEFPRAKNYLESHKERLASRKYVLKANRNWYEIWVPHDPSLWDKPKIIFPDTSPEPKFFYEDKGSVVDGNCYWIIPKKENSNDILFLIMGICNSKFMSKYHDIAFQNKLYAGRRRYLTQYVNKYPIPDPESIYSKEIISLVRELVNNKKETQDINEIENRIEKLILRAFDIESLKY

Binder | binding result [1] | binding result [2]
E. coli genomic DNA containing M.BseCI sites (dsDNA) DNA 1: ATCGAT DNA 2: ATCGAT | binds | 
T7 phage genomic DNA containing three M.BseCI sites (dsDNA) DNA 1: ATCGAT DNA 2: ATCGAT |  | binds
